Source: article PMC5798300

Molecular target: (2S)-methylsuccinyl-CoA dehydrogenase from Paracoccus denitrificans, wild type, as used for analytical size-exclusion chromatography (Paracoccus denitrificans)
Test: SEC; analytical; Superdex 200 Increase 10/300 GL, 100 µl at 2 mg/ml, 0.7 ml/min, 20 mM Tris-HCl pH 7.9, 200 mM NaCl; enzymes incubated with 500 µM FAD for 1 h on ice beforehand; calibrated with a gel filtration standard

A stoichiometry N of 2 was found for “(2S)-methylsuccinyl-CoA dehydrogenase from Paracoccus denitrificans, wild type, as used for analytical size-exclusion chromatography (enzyme)” in this work.
